The labels stand for the following.
B1: 2E7 (antibody, V domains shown)
VH: EVQLVESGGGLVKPGGSLRLSCAGSGFTFSSYTMHWVRQAPGKGLEWVSSITGGSSYVDYSASVKGRFTISRDNAQSSLYLQMNSLRAEDTAVYYCARDDYGSGSYSNWFDPWGQGTLVTVSS
VL: SYELTQPPSASGTPGQRVTISCTGSSSNIGAGYDVHWYQQLPGAAPRLLMFGNSNRPSGVPDRFSGSKSGTSASLAITGLQADDEADYYCQSYDRSLSHVFGTGTKVTVLG
notes: IgG made in Expi293; also called #6
B2: 2H2 (antibody, V domains shown)
VH: QVQLVQSGGGLIQPGGSLRLSCAGSGFTFSSYTMHWVRQAPGKGLEWVSSITGGSSYVDYSASVKGRFTISRDNAQSSLYLQMNSLRAEDTAVYYCARDDYGSGSYSNWFDPWGQGTLVTVSS
VL: QSVLTQPPSVSGAPGQRVTISCTGSSSNIGAGYDVHWYQQLPGTAPKLLIFANTNRPSGVPDRFSGSKSGASASLAITGLQADDEADYYCQSYDRSLSHVFGTGTKVTVLG
notes: IgG made in Expi293; also called #7
B3: 12A1 (antibody, V domains shown)
VH: EVQLVESGGGLIQPGGSLRLSCAGSGFTFSSYTMHWVRQAPGKGLEWVSSITGGSSYVDYSASVKGRFTISRDNAQSSLYLQMNSLRAEDTAVYYCARDDYGSGSYSNWFDPWGQGTLVTVSS
VL: QSVLTQPPSVSGAPGQRVTISCTGSSSDIGAGYDVHWYQQLPGTAPKLLIFANTNRPSGVPDRFSGSKSGASASLAITGLQADDEADYYCQSYDRSLSHVFGTGTKVTVLG
notes: IgG made in Expi293; also called #8
B4: #6m (antibody, V domains shown)
VH: EVQLVESGGGLVKPGGSLRLSCAGSGFTFSSYTMHWVRQAPGKGLEWVSSITGGSSYVDYSASVKGRFTISRDNAQSSLYLQMNSLRAEDTAVYYCARDDYGSGSYSNWFDPWGQGTLVTVSS
VL: QSVLTQPPSASGTPGQRVTISCTGSSSNIGAGYDVHWYQQLPGAAPRLLMFGNSNRPSGVPDRFSGSKSGTSASLAITGLQADDEADYYCQSYDRSLSHVFGTGTKVTVLG
notes: Germline-edited (m) form of 2E7, light chain edited; IgG; also called 2E7 (modified)
B5: 4E9 (antibody, V domains shown)
VH: QVQLVQSGAEVKKPGSSVKVSCKASGYTFTDYGLSWVRQAPGHGLEWMGWITAYNGDTNYAQKFQDRLSVTTDISTSTAYMELRSLKSDDTAVYYCARHVFCSGDGCYSGLGSWGQGTLVTVSS
VL: QSVLTQPPSVSGAPGQRVTISCSGSSSNVGSNTVNWYQQLPGTAPKLLIYDKNERPSGVPDRFSASKSGTSSSLAIGGLRSEDEADYYCGTWDDNLNGWVFGGGTKLTVLG
notes: IgG made in Expi293; also called #48; 48
B6: #51m (antibody, V domains shown)
VH: EVQLVQSGAEVKKPGASVKVSCKASGYTFTDYGLSWVRQAPGHGLEWMGWITAYNGDTNYAQKFQDRLSVTTDISTSTAYMELRSLKSDDTAVYYCARHVFCSGDGCYSGLGSWGQGTLVTVSS
VL: QSVLTQPPSASGAPGQRVIISCSGSSSNVGSNTVNWYQQLPGTAPKLLIYDKNERPSGVPDRFSASKSGTSSSLAIGGLRSEDEADYYCGTWDDNLNGWVFGGGTKLTVLG
notes: Germline-edited (m) form of 3E7, heavy chain edited; IgG; also called 3E7 (modified)
B7: 4H7 (antibody, V domains shown)
VH: QVQLVQSGAEVKKPGASVKVSCKASGYTFTDYGLSWVRQAPGHGLEWMGWITAYNGDTNYAQKFQDRLSVTTDISTSTAYMELRSLKSDDTAVYYCARHVFCSGDGCYSGLGSWGQGTLVTVSS
VL: SYELTQPPSASGAPGQRVIISCSGSSSNVGSNTVNWYQQLPGTAPKLLIYDKNERPSGVPDRFSASKSGTSSSLAIGGLRSEDEADYYCATWDDNLNGWVFGGGTKLTVLG
notes: IgG made in Expi293; also called #49; 49
B8: 3E7 (antibody, V domains shown)
VH: EVQLVESGTEVKKPGASVKVSCKASGYTFTDYGLSWVRQAPGHGLEWMGWITAYNGDTNYAQKFQDRLSVTTDISTSTAYMELRSLKSDDTAVYYCARHVFCSGDGCYSGLGSWGQGTLVTVSS
VL: QSVLTQPPSASGAPGQRVIISCSGSSSNVGSNTVNWYQQLPGTAPKLLIYDKNERPSGVPDRFSASKSGTSSSLAIGGLRSEDEADYYCGTWDDNLNGWVFGGGTKLTVLG
notes: IgG made in Expi293; also called #51; 51
B9: #50m (antibody, V domains shown)
VH: QVQLVQSGAEVKKPGASVKVSCKASGYTFTDYGLSWVRQAPGHGLEWMGWITAYNGDTNYAQKFQDRLSVTTDISTSTAYMELRSLKSDDTAVYYCARHVFCSGDGCYSGLGSWGQGTLVTVSS
VL: QSVLTQPPSASGAPGQRVIISCSGSSSNVGSNTVNWYQQLPGTAPKLLIYDKNERPSGVPDRFSASKSGTSSSLAIGGLRSEDEADYYCGTWDDNLNGWVFGGGTKLTVLG
notes: Germline-edited (m) form of 2F8, light chain edited; IgG; also called 2F8 (modified)
B10: #49m (antibody, V domains shown)
VH: QVQLVQSGAEVKKPGASVKVSCKASGYTFTDYGLSWVRQAPGHGLEWMGWITAYNGDTNYAQKFQDRLSVTTDISTSTAYMELRSLKSDDTAVYYCARHVFCSGDGCYSGLGSWGQGTLVTVSS
VL: QSVLTQPPSASGAPGQRVIISCSGSSSNVGSNTVNWYQQLPGTAPKLLIYDKNERPSGVPDRFSASKSGTSSSLAIGGLRSEDEADYYCATWDDNLNGWVFGGGTKLTVLG
notes: Germline-edited (m) form of 4H7, light chain edited; IgG; also called 4H7 (modified)
B11: 5E9 (antibody, V domains shown)
VH: QVQLVQSGPEVKKPGSSVKVSCKASGYTFGHYGISWVRQAPGQGLEWMAWISAYNGNTDSIQKVQGRVTMTTDTSTNTAYLELRSLRSDDTAVYYCVRDVPATGGAATADYWGQGTTVTVSS
VL: DVVMTQSPLSLPVTLGQPASISCRSSQSLVFSDGNTYLSWFQQRPGQSPRRLIYKVSNRDSGVPDRFSASGSGTDFTLKISRVEADDVGVYYCMQVTHWPRTFGQGTRLEIKR
notes: IgG made in Expi293; also called #60; 60
B12: 8A11 (antibody, V domains shown)
VH: QVQLVQSGSEVKKPGASVKVSCKASGYTFGHYGISWVRQAPGQGLEWMAWISAYNGNTDSIQKVQGRVTMTTDTSTNTAYLELRSLRSDDTAVYYCVRDVPATGGAATADYWGQGTLVTVSS
VL: DVVMTQSPLSLPVTLGQPASISCKSSRSLVHSDGNTYLSWFQQRPGQSPRRLIYKVSNRDSGVPDRFSASGSGTDFTLKISRVEADDVGVYYCMQVTHWPRTFGQGTKLEIKR
notes: IgG made in Expi293; also called #63; 63
B13: #62m (antibody, V domains shown)
VH: QVQLVQSGAEVKKPGASVKVSCKASGYTFGHYGISWVRQAPGQGLEWMAWISAYNGNTDSIQKVQGRVTMTTDTSTNTAYLELRSLRSDDTAVYYCVRDVPATGGAATADYWGQGTLVTVSS
VL: DVVMTQSPLSLPVPLGQPASISCRSSQSLVHSDGNTYLSWFQQRPGQSPRRLIYKVSDRDSGVPDRFSGSGSGTDFTLKISRVEAEDVGVYYCMQVTHWPRTFGQGTRLEIKR
notes: Germline-edited (m) form of 5C7, heavy chain edited; IgG; also called 5C7 (modified)
B14: 5C9 (antibody, V domains shown)
VH: QVQLVQSGSEVKKPGASVKVSCKASGYTFGHYGISWVRQAPGQGLEWMAWISAYNGNTDSIQKVQGRVTMTTDTSTNTAYLELRSLRSDDTAVYYCVRDVPATGGAATADYWGQGTTVTVSS
VL: DVVMTQSPLSLPVTLGQPASISCRSSQSLVFSDGNTYLSWFQQRPGQSPRRLIYKVSNRDSGVPDRFSASGSGTDFTLKISRVEADDVGVYYCMQVTHWPRTFGQGTKLEIKR
notes: IgG made in Expi293; also called #61; 61
B15: 5C7 (antibody, V domains shown)
VH: QVQLQQSGSEVKKPGASVKVSCKASGYTFGHYGISWVRQAPGQGLEWMAWISAYNGNTDSIQKVQGRVTMTTDTSTNTAYLELRSLRSDDTAVYYCVRDVPATGGAATADYWGQGTLVTVSS
VL: DVVMTQSPLSLPVPLGQPASISCRSSQSLVHSDGNTYLSWFQQRPGQSPRRLIYKVSDRDSGVPDRFSGSGSGTDFTLKISRVEAEDVGVYYCMQVTHWPRTFGQGTRLEIKR
notes: IgG made in Expi293; also called #62; 62
B16: 9H4 (antibody, V domains shown)
VH: QVQLVQSGGGLVQPGGSLRISCTASGFTFRNYEMNWVRQAPGKGLEWVAYISSSGSSRYYADSVKGRFTISRDNAKNSLFLQMNSLRAEDMAVYYCARTDDGSSWFVSTSSFYGMDVWGQGTTVTVSS
VL: EIVLTQSPGIQSLSPGETATLSCRASESISSSYFAWYQQKPGQAPRLLIYGASSRASGIPDRFSGSGSGTDFTLTISRLEPEDFAVYYCQQYGSSPPITFGQGTRLEIKR
notes: IgG made in Expi293; also called #52; 52
B17: #52m (antibody, V domains shown)
VH: QVQLVESGGGLVQPGGSLRISCTASGFTFRNYEMNWVRQAPGKGLEWVAYISSSGSSRYYADSVKGRFTISRDNAKNSLFLQMNSLRAEDMAVYYCARTDDGSSWFVSTSSFYGMDVWGQGTTVTVSS
VL: EIVLTQSPGIQSLSPGETATLSCRASESISSSYFAWYQQKPGQAPRLLIYGASSRASGIPDRFSGSGSGTDFTLTISRLEPEDFAVYYCQQYGSSPPITFGQGTRLEIKR
notes: Germline-edited (m) form of 9H4, heavy chain edited; IgG; also called 9H4 (modified)
B18: D25 (antibody, V domains shown)
VH: QVQLVQSGAEVKKPGSSVMVSCQASGGPLRNYIINWLRQAPGQGPEWMGGIIPVLGTVHYAPKFQGRVTITADESTDTAYIHLISLRSEDTAMYYCATETALVVSTTYLPHYFDNWGQGTLVTVSS
VL: DIQMTQSPSSLSAAVGDRVTITCQASQDIVNYLNWYQQKPGKAPKLLIYVASNLETGVPSRFSGSGSGTDFSLTISSLQPEDVATYYCQQYDNLPLTFGGGTKVEIK

The target of this experiment is DS-Cav1 (RSV F-protein, pre-form, in-house) (respiratory syncytial virus (RSV), UniProt P03420 26-513). Put plainly: ELISA, coated DS-Cav1, IgG titrated. For orientation: An ELISA detects its analyte on a solid surface through an enzyme-linked reagent.
DS-Cav1 (RSV F-protein, pre-form, in-house), sequence (P03420 26-524): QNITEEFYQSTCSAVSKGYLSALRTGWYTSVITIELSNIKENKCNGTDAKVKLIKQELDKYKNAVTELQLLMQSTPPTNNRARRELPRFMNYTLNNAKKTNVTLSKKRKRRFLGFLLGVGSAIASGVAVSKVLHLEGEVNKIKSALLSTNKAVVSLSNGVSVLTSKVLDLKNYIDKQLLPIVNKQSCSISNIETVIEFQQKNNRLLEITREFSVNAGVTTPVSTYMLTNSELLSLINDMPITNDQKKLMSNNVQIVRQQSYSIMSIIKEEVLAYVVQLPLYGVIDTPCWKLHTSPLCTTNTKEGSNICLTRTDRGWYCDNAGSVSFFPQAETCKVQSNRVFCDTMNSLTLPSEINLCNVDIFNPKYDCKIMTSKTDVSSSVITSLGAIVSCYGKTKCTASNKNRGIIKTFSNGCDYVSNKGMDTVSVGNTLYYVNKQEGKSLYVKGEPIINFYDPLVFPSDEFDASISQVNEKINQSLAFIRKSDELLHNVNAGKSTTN
Take B1: the dissociation constant (Kd) (in general, the free concentration of one partner at which half of the binding sites on the other are occupied at equilibrium, for simple one-to-one binding) is about 0.4 nM.

For the molecule B2, the Kd is about 0.44 nM.

The molecule B3 displayed a Kd of about 1.66 nM.

The molecule B4 registered a Kd of about 2.34 nM.

Molecule B5 had a Kd of about 0.7 nM.

B6 returned a Kd of about 1.26 nM.

The molecule B7 came in with a Kd of about 2.15 nM.

For the molecule B8, the Kd is about 0.37 nM.

For the molecule B9, the Kd was about 1.08 nM.

With B10, the dissociation constant Kd is about 1.11 nM.

Take B11: the Kd was about 1.31 nM.

As to B12, the Kd is about 0.69 nM.

Molecule B13 had a Kd of about 1.27 nM.

The molecule B14 came in with a Kd of about 0.8 nM.

B15 yielded a Kd of about 0.84 nM.

B16 registered a Kd of about 0.89 nM.

Turning to B17, the Kd is about 0.89 nM.

B18 yielded a Kd of about 0.73 nM.

(Values after patent US20240182547A1 (MOGAM INSTITUTE FOR BIOMEDICAL RESEARCH, published 2024).)
